Experimental data as given in paper PMC11624268, “Leishmania protein KMP-11 modulates cholesterol transport and membrane fluidity to facilitate host cell invasion” (EMBO Reports, 2024).

B1: purified recombinant KMP-11 (kinetoplastid membrane protein-11), wild type (natural protein)
chain: MATTYEEFSAKLDRLDQEFNRKMQEQNAKFFADKPDESTLSPEMREHYEKFERMIKEHTEKFNKKMHEHSEHFKQKFAELLEQQKAAQYPSK
notes: amino-terminal stretch (1-19) of kinetoplastid membrane protein-11 (KMP-11), Leishmania donovani (so in the source); rest of kinetoplastid membrane protein-11 (KMP-11), Leishmania donovani, after the printed stretch 1-19; Purification by the procedure of Sharma et al, 2013; also called r-KMP-11; WT KMP-11; source: pET28a, bacterial culture, purified (Ni-NTA, endotoxin removal column, gel …)
B2: Alexa488-maleimide labeled r-KMP-11 S38C (kinetoplastid membrane protein-11, single cysteine mutant) (natural protein)
chain: MATTYEEFSAKLDRLDQEFNRKMQEQNAKFFADKPDECTLSPEMREHYEKFERMIKEHTEKFNKKMHEHSEHFKQKFAELLEQQKAAQYPSK
modifications: Alexa-488 maleimide on the single cysteine (S38C); labeling percentage 86%
notes: amino-terminal stretch (1-19) of kinetoplastid membrane protein-11 (KMP-11), Leishmania donovani (so in the source); rest of kinetoplastid membrane protein-11 (KMP-11), Leishmania donovani, after the printed stretch 1-19; The labeled protein was passed through Ni NTA after labeling, so the tag was probably still there; Purification by the procedure of Sharma et al, 2013; also called …

Legend:
[1] = target: the molecule itself; experiment: negative stain TEM; purified KMP-11 (0.1 mg/ml) in the presence of DPPC ERG (30%) SUVs; 50 mM tris pH 8.0, 150 mM NaCl; 1% uranyl acetate
[2] = target: B1; experiment: fluorescence correlation spectroscopy (FCS); 50 nM Alexa488Maleimide labeled r-KMP-11 in the presence of unlabeled r-KMP-11 at different total concentrations; diffusion time read out; in the absence and presence of different salt concentrations (salt facilitates self-association); conditions: both partners purified
[3] = target: the molecule itself; experiment: single molecule photobleaching step analysis (TIRF microscopy); 50 nM Alexa-488 maleimide labeled KMP-11 (S38C) on PEG cushioned supported bilayer of DPPC-ERG (30%); 30 min incubation; manual step counts from 235 spots

Row | Binder | stoichiometry N [1] | binding result [2] | stoichiometry N [3]
1 | B1 | 4 | – | –
2 | B2 | – | binds | 4
